Test results: patent US20250043302A1, “MUTATED HYDROXYPHENYLPYRUVATE DIOXYGENASE POLYPEPTIDE, AND CODING GENE AND USE THEREOF” (BEIJING DABEINONG BIOTECHNOLOGY CO., LTD., priority 2021, published 2025)

Columns and labels:
Format in all cases: in vivo
[1] = test system: Arabidopsis thaliana T1 plants; test: Topramezone tolerance of transgenic Arabidopsis thaliana T1 plants (spray, bleached leaf area grade, damage score); settings: 7 DAT, Table 4; for Classification and statistics of the grade of pesticide damage: Grade 0 / Classification and statistics of the grade of pesticide damage: Grade 1 / Classification and statistics of the grade of pesticide damage: Grade 2 / Classification and statistics of the grade of pesticide damage: Grade 3: number of plants; for Scores: pesticide damage score 0-100
Method in brief: (§1)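 T1 transformants selected by glufosinate; 18-day-old plants, with empty-vector and wild-type controls, sprayed with topramezone (25–200 g ai/ha), isoxaflutole (35–280 g ai/ha) or mesotrione (52.5–420 g ai/ha), water as 0×. Bleached leaf area fraction scored at 7 DAT as grades 0–3.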

[2] = test system: Arabidopsis thaliana T1 plants; test: Isoxaflutole tolerance of transgenic Arabidopsis thaliana T1 plants (spray, bleached leaf area grade, damage score); parameters: Scores (pesticide damage): scale not given here; settings: spray, Arabidopsis thaliana T1 plants; for Classification and statistics of the grade of pesticide damage: Grade 0 (number of plants) / Classification and statistics of the grade of pesticide damage: Grade 1 (number of plants) / Classification and statistics of the grade of pesticide damage: Grade 2 (number of plants) / Classification and statistics of the grade of pesticide damage: Grade 3 (number of plants): 16 plants
Method in brief: as §1

[3] = test system: Arabidopsis thaliana T1 plants; test: Mesotrione tolerance of transgenic Arabidopsis thaliana T1 plants (spray, bleached leaf area grade, damage score); parameters: Scores: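 damage score 0-100 computed as Σ(N×S)/(T×M)×100 over grades 0-3 with higher meaning more damage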; settings: Arabidopsis thaliana T1 plants; for Grade 0 (classification and statistics of the grade of pesticide damage; number of plants) / Grade 1 (classification and statistics of the grade of pesticide damage; number of plants) / Grade 2 (classification and statistics of the grade of pesticide damage; number of plants) / Grade 3 (classification and statistics of the grade of pesticide damage; number of plants): 16 plants
Method in brief: as §1

[4] = isoxaflutole 35 g ai/ha (0.5x field concentration)
[5] = isoxaflutole 70 g ai/ha (1x field concentration)

B1: GsHPPD-02: nucleotide sequence encoding wild-type Gossypium hirsutum HPPD; vector DBN11738 (nucleic acid)
DNA: ATGGTTCAAACAAATCAATCTGGTTCTGGGAATGATTTCAAGCTGGTTGGTTTCTCAAATTTTGTGCGTAGCAATCCCAAATCAGACCGCTTCACGGTCAAGAGATTCCACCACATTGAATTTTGGTGCACTGATGCCACTAATGTGGCGAGGAGGTTTTCATGGGGTTTAGGGATGCAGTTCGTCGCCAAGAGTGACCTCTCCACAGGAAATTTGACGCATGCAAGCTACCTGCTGCGGAGCCGCGACTTGAATTTCCTGTTTACAGCACCATATTCACCCAGTATTGCAGTTGCTCAAAACCTTTCGCCACAAAGCACTGCTTCCATACCTTCATTTGATCACTCGCTTTGTCGGTCCTTTGCTGCAACACATGGACTTGGCGTCAGAGCAATTGCCATCGAGGTGGACGACGCCGAAACTGCCTTCACCACGAGCGTGACACATGGCGCGCTCCCTTTTTGTCCACCAACACCACTAGGAGATGTGGCTACAATTGCTGAAGTTAAATTATATGGTGATGTTGTGCTCAGATATGTTTCTTACACCACAACCATCAACTCCGACCATGATTTTCTGCCTGGTTTTGAGAAGATTGAAGATACTCTATCGTATCCTTTGGATTATGGCCTGCGTCGGCTCGATCATGCTGTTGGCAACGTACCTGAATTAGGTCCTGCTGTATCTTATGTGAAATCTTTTACTGGGTTCCATGAGTTTGCAGAGTTCACCGCTGAGGATGTAGGAACAAGTGAATCTGGGCTGAACTCAGTTGTTTTGGCCAACAATGAGGAAATGGTCCTCTTACCAATGAACGAGCCGGTGTTCGGCACTAAGCGCAAATCTCAAATACAGACCTACTTGGAGCACAATGAAGGAGCTGGTGTGCAGCACCTCGCCCTCGTCTCGGAGGACATCTTCAAAACTTTAAGGGAGATGAGGAAACGATCCTTTGTGGGAGGATTTGAATTCATGCCTTCTCCGCCGCCGACATACTACAAGAAGCTCAAGCAGCGCGCGGGGGACATTTTGTCTGATGAGCAGATCAAGGAGTGTGAAGAGCTTGGGATTCTTGTTGATAGAGATGATCAAGGAACGCTTCTGCAGATATTTACCAAGCCCGTCGGCGACCGGCCTACTATATTCATTGAGATCATCCAGAGAATTGGTTGCATGGTGAAGGATGAAGAAGGGAAACAGTACCAGAAGGGCGGCTGCGGCGGGTTTGGAAAAGGAAACTTCAGTGAGCTGTTTAAAAGTATAGAGGAGTATGAAAAGAGCTTGGAAGCAAAACAATCACAAAATCCATGA
modifications: GsHPPD-02 Nucleotide Sequence
notes: vector DBN11738
[1]; topramezone 25 g ai/ha (1×)
  Classification and statistics of the grade of pesticide damage: Grade 0: 0
  Classification and statistics of the grade of pesticide damage: Grade 1: 0
  Classification and statistics of the grade of pesticide damage: Grade 2: 0
  Classification and statistics of the grade of pesticide damage: Grade 3: 16
  Scores: 100
  Resistance evaluation: non-resistant (non-resistant plants (scores 68-100))
[1]; topramezone 100 g ai/ha (4×)
  Classification and statistics of the grade of pesticide damage: Grade 0: 0
  Classification and statistics of the grade of pesticide damage: Grade 1: 0
  Classification and statistics of the grade of pesticide damage: Grade 2: 0
  Classification and statistics of the grade of pesticide damage: Grade 3: 16
  Scores: 100
  Resistance evaluation: non-resistant (non-resistant plants (scores 68-100))
[2]; [4]
  Resistance evaluation: Non-resistant
  Scores (pesticide damage): 100
  Classification and statistics of the grade of pesticide damage: Grade 0 (number of plants): 0
  Classification and statistics of the grade of pesticide damage: Grade 1 (number of plants): 0
  Classification and statistics of the grade of pesticide damage: Grade 2 (number of plants): 0
  Classification and statistics of the grade of pesticide damage: Grade 3 (number of plants): 16
[2]; [5]
  Resistance evaluation: Non-resistant
  Scores (pesticide damage): 100
  Classification and statistics of the grade of pesticide damage: Grade 0 (number of plants): 0
  Classification and statistics of the grade of pesticide damage: Grade 1 (number of plants): 0
  Classification and statistics of the grade of pesticide damage: Grade 2 (number of plants): 0
  Classification and statistics of the grade of pesticide damage: Grade 3 (number of plants): 16
[3]; mesotrione 52.5 g ai/ha
  Resistance evaluation: Non-resistant
  Scores: 100
  Grade 0 (classification and statistics of the grade of pesticide damage; number of plants): 0
  Grade 1 (classification and statistics of the grade of pesticide damage; number of plants): 0
  Grade 2 (classification and statistics of the grade of pesticide damage; number of plants): 0
  Grade 3 (classification and statistics of the grade of pesticide damage; number of plants): 16
[3]; mesotrione 105 g ai/ha
  Resistance evaluation: Non-resistant
  Scores: 100
  Grade 0 (classification and statistics of the grade of pesticide damage; number of plants): 0
  Grade 1 (classification and statistics of the grade of pesticide damage; number of plants): 0
  Grade 2 (classification and statistics of the grade of pesticide damage; number of plants): 0
  Grade 3 (classification and statistics of the grade of pesticide damage; number of plants): 16
